{
  "source": "patent US20260167721A1",
  "about": "(ABLEXIS, published 2026)",
  "binders": {"B1": {"name": "CD3 × CD33-BspAb42 (bispecific antibody)", "chain 1": "EVQLVESGGGLVKPGGSLRLSCAASGFTLSSYSMNWVRQAPGKCLEWVSSISRSGSYIYYADSVKGRFTISRDNAKNSLYLQMNSLRAEDTAVYYCAREKWELLYFDYWGQGTLVTVSSGGGGSGGGGSGGGGSGGGGSNFMLTQPHSVSESPGKTVTISCTRSSGSIASNYVQWYQQRPGSSPTTVIYEDNQRPSGVPDRFSGSIDSSSNSASLTISGLKTEDEADYYCQSYDSSNRVFGCGTKLTVLDKTHTCPPCPAPEFEGGPSVFLFPPKPKDTLMISRTPEVTCVVVDVSHEDPEVKFNWYVDGVEVHNAKTKPREEQYNSTYRVVSVLTVLHQDWLNGKEYKCKVSNKALPASIEKTISKAKGQPREPQVYTLPPCREEMTKNQVSLWCLVKGFYPSDIAVEWESNGQPENNYKTTPPVLDSDGSFFLYSKLTVDKSRWQQGNVFSCSVMHEALHNHYTQKSLSLSPGK", "chain 2": "EVQLVQSGAEVKKPGSSVKVSCKASGYTITDSNIHWVRQAPGQSLEWIGYIYPYNGGTDYNQKFKNRATLTVDNPTNTAYMELSSLRSEDTAFYYCVNGNPWLAYWGQGTLVTVSSASTKGPSVFPLAPSSKSTSGGTAALGCLVKDYFPEPVTVSWNSGALTSGVHTFPAVLQSSGLYSLSSVVTVPSSSLGTQTYICNVNHKPSNTKVDKRVEPKSCDKTHTCPPCPAPEFEGGPSVFLFPPKPKDTLMISRTPEVTCVVVDVSHEDPEVKFNWYVDGVEVHNAKTKPREEQYNSTYRVVSVLTVLHQDWLNGKEYKCKVSNKALPASIEKTISKAKGQPREPQVCTLPPSREEMTKNQVSLSCAVKGFYPSDIAVEWESNGQPENNYKTTPPVLDSDGSFFLVSKLTVDKSRWQQGNVFSCSVMHEALHNRFTQKSLSLSPGK", "chain 3": "DIQLTQSPSTLSASVGDRVTITCRASESLDNYGIRFLTWFQQKPGKAPKLLMYAASNQGSGVPSRFSGSGSGTEFTLTISSLQPDDFATYYCQQTKEVPWSFGQGTKVEVKRTVAAPSVFIFPPSDEQLKSGTASVVCLLNNFYPREAKVQWKVDNALQSGNSQESVTEQDSKDSTYSLSSTLTLSKADYEKHKVYACEVTHQGLSSPVTKSFNRGEC"}, "B2": {"name": "CD3 × CD33-BspAb44 (bispecific antibody)", "chain 1": "EVQLVESGGGLVKPGGSLRLSCAASGFTFSRYSMNWVRQAPGKCLKWVSSISSSGSYKYYADSVKGRFTISRDNAKNSLYLQMNSLRAEDTAVYYCAREPPTLGMDYWGQGTLVTVSSGGGGSGGGGSGGGGSGGGGSNFMLTQPHSVSESPGKTVTISCTRSSGSIASNYVQWYQQRPGSSPTTVIYEDNQRPSGVPDRFSGSIDSSSNSASLTISGLKTEDEADYYCQSFDNSNRVFGCGTKLTVLDKTHTCPPCPAPEFEGGPSVFLFPPKPKDTLMISRTPEVTCVVVDVSHEDPEVKFNWYVDGVEVHNAKTKPREEQYNSTYRVVSVLTVLHQDWLNGKEYKCKVSNKALPASIEKTISKAKGQPREPQVYTLPPCREEMTKNQVSLWCLVKGFYPSDIAVEWESNGQPENNYKTTPPVLDSDGSFFLYSKLTVDKSRWQQGNVFSCSVMHEALHNHYTQKSLSLSPGK", "chain 2": "EVQLVQSGAEVKKPGSSVKVSCKASGYTITDSNIHWVRQAPGQSLEWIGYIYPYNGGTDYNQKFKNRATLTVDNPTNTAYMELSSLRSEDTAFYYCVNGNPWLAYWGQGTLVTVSSASTKGPSVFPLAPSSKSTSGGTAALGCLVKDYFPEPVTVSWNSGALTSGVHTFPAVLQSSGLYSLSSVVTVPSSSLGTQTYICNVNHKPSNTKVDKRVEPKSCDKTHTCPPCPAPEFEGGPSVFLFPPKPKDTLMISRTPEVTCVVVDVSHEDPEVKFNWYVDGVEVHNAKTKPREEQYNSTYRVVSVLTVLHQDWLNGKEYKCKVSNKALPASIEKTISKAKGQPREPQVCTLPPSREEMTKNQVSLSCAVKGFYPSDIAVEWESNGQPENNYKTTPPVLDSDGSFFLVSKLTVDKSRWQQGNVFSCSVMHEALHNRFTQKSLSLSPGK", "chain 3": "DIQLTQSPSTLSASVGDRVTITCRASESLDNYGIRFLTWFQQKPGKAPKLLMYAASNQGSGVPSRFSGSGSGTEFTLTISSLQPDDFATYYCQQTKEVPWSFGQGTKVEVKRTVAAPSVFIFPPSDEQLKSGTASVVCLLNNFYPREAKVQWKVDNALQSGNSQESVTEQDSKDSTYSLSSTLTLSKADYEKHKVYACEVTHQGLSSPVTKSFNRGEC"}, "B3": {"name": "CD3 × CD33-BspAb45 (bispecific antibody)", "chain 1": "EVQLVESGGGLVQPGGSLRLSCAASGFTFSRYSMNWVRQAPGKCLEWVSYISSSSSSIYYADSVKGRFTISRDNAKNSLYLQMNSLRDEDTAVYYCARDRRATLDYWGQGTLVTVSSGGGGSGGGGSGGGGSGGGGSNFMLTQPHSVSESPGKTVTISCTRSSGSIASNYVQWYQQRPGSSPTTVIYEDNQRPSGVPDRFSGSIDSSSNSASLTISGLKTEDEADYYCQSYDSSNHVFGCGTKLTVLDKTHTCPPCPAPEFEGGPSVFLFPPKPKDTLMISRTPEVTCVVVDVSHEDPEVKFNWYVDGVEVHNAKTKPREEQYNSTYRVVSVLTVLHQDWLNGKEYKCKVSNKALPASIEKTISKAKGQPREPQVYTLPPCREEMTKNQVSLWCLVKGFYPSDIAVEWESNGQPENNYKTTPPVLDSDGSFFLYSKLTVDKSRWQQGNVFSCSVMHEALHNHYTQKSLSLSPGK", "chain 2": "EVQLVQSGAEVKKPGSSVKVSCKASGYTITDSNIHWVRQAPGQSLEWIGYIYPYNGGTDYNQKFKNRATLTVDNPTNTAYMELSSLRSEDTAFYYCVNGNPWLAYWGQGTLVTVSSASTKGPSVFPLAPSSKSTSGGTAALGCLVKDYFPEPVTVSWNSGALTSGVHTFPAVLQSSGLYSLSSVVTVPSSSLGTQTYICNVNHKPSNTKVDKRVEPKSCDKTHTCPPCPAPEFEGGPSVFLFPPKPKDTLMISRTPEVTCVVVDVSHEDPEVKFNWYVDGVEVHNAKTKPREEQYNSTYRVVSVLTVLHQDWLNGKEYKCKVSNKALPASIEKTISKAKGQPREPQVCTLPPSREEMTKNQVSLSCAVKGFYPSDIAVEWESNGQPENNYKTTPPVLDSDGSFFLVSKLTVDKSRWQQGNVFSCSVMHEALHNRFTQKSLSLSPGK", "chain 3": "DIQLTQSPSTLSASVGDRVTITCRASESLDNYGIRFLTWFQQKPGKAPKLLMYAASNQGSGVPSRFSGSGSGTEFTLTISSLQPDDFATYYCQQTKEVPWSFGQGTKVEVKRTVAAPSVFIFPPSDEQLKSGTASVVCLLNNFYPREAKVQWKVDNALQSGNSQESVTEQDSKDSTYSLSSTLTLSKADYEKHKVYACEVTHQGLSSPVTKSFNRGEC"}, "B4": {"name": "CD3 × CD33-BspAb51 (bispecific antibody)", "chain 1": "not shown", "chain 2": "EVQLVQSGAEVKKPGSSVKVSCKASGYTITDSNIHWVRQAPGQSLEWIGYIYPYNGGTDYNQKFKNRATLTVDNPTNTAYMELSSLRSEDTAFYYCVNGNPWLAYWGQGTLVTVSSASTKGPSVFPLAPSSKSTSGGTAALGCLVKDYFPEPVTVSWNSGALTSGVHTFPAVLQSSGLYSLSSVVTVPSSSLGTQTYICNVNHKPSNTKVDKRVEPKSCDKTHTCPPCPAPEFEGGPSVFLFPPKPKDTLMISRTPEVTCVVVDVSHEDPEVKFNWYVDGVEVHNAKTKPREEQYNSTYRVVSVLTVLHQDWLNGKEYKCKVSNKALPASIEKTISKAKGQPREPQVCTLPPSREEMTKNQVSLSCAVKGFYPSDIAVEWESNGQPENNYKTTPPVLDSDGSFFLVSKLTVDKSRWQQGNVFSCSVMHEALHNRFTQKSLSLSPGK", "chain 3": "DIQLTQSPSTLSASVGDRVTITCRASESLDNYGIRFLTWFQQKPGKAPKLLMYAASNQGSGVPSRFSGSGSGTEFTLTISSLQPDDFATYYCQQTKEVPWSFGQGTKVEVKRTVAAPSVFIFPPSDEQLKSGTASVVCLLNNFYPREAKVQWKVDNALQSGNSQESVTEQDSKDSTYSLSSTLTLSKADYEKHKVYACEVTHQGLSSPVTKSFNRGEC"}, "B5": {"name": "CD3 × CD33-BspAb37 (bispecific antibody)", "chain 1": "not shown", "chain 2": "EVQLVQSGAEVKKPGSSVKVSCKASGYTITDSNIHWVRQAPGQSLEWIGYIYPYNGGTDYNQKFKNRATLTVDNPTNTAYMELSSLRSEDTAFYYCVNGNPWLAYWGQGTLVTVSSASTKGPSVFPLAPSSKSTSGGTAALGCLVKDYFPEPVTVSWNSGALTSGVHTFPAVLQSSGLYSLSSVVTVPSSSLGTQTYICNVNHKPSNTKVDKRVEPKSCDKTHTCPPCPAPEFEGGPSVFLFPPKPKDTLMISRTPEVTCVVVDVSHEDPEVKFNWYVDGVEVHNAKTKPREEQYNSTYRVVSVLTVLHQDWLNGKEYKCKVSNKALPASIEKTISKAKGQPREPQVCTLPPSREEMTKNQVSLSCAVKGFYPSDIAVEWESNGQPENNYKTTPPVLDSDGSFFLVSKLTVDKSRWQQGNVFSCSVMHEALHNRFTQKSLSLSPGK", "chain 3": "DIQLTQSPSTLSASVGDRVTITCRASESLDNYGIRFLTWFQQKPGKAPKLLMYAASNQGSGVPSRFSGSGSGTEFTLTISSLQPDDFATYYCQQTKEVPWSFGQGTKVEVKRTVAAPSVFIFPPSDEQLKSGTASVVCLLNNFYPREAKVQWKVDNALQSGNSQESVTEQDSKDSTYSLSSTLTLSKADYEKHKVYACEVTHQGLSSPVTKSFNRGEC"}},
  "key": {"[1]": {"molecular_target": "T1, CD3 on Jurkat wild-type cells (UniProt P07766 23-207; P04234 22-171; P09693 23-182)", "T1 construct": "whole, on cells; also called Jurkat WT", "T1 sequence (P07766 23-207, chain 1 of 3)": "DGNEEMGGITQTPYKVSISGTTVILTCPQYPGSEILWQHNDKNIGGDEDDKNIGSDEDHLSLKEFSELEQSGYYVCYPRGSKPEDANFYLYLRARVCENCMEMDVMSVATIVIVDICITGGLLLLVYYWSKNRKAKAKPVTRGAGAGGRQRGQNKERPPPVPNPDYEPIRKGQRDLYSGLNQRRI", "T1 sequence (P04234 22-171, chain 2 of 3)": "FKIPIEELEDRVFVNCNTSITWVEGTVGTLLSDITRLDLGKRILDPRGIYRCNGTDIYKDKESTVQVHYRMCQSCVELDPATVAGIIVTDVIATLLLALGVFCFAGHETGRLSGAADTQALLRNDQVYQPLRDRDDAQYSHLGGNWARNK", "T1 sequence (P09693 23-182, chain 3 of 3)": "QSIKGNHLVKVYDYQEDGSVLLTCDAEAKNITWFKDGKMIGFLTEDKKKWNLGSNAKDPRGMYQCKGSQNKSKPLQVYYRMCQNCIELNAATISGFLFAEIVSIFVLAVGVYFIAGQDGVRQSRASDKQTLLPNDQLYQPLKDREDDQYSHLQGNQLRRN", "experiment": "flow cytometry on Jurkat WT cells, antibody at 1 ug/ml"}, "CD33 on KILR-HL60 cells [2]": {"molecular_target": "T2, CD33 on KILR-HL60 cells (UniProt P20138 18-364, limits assumed)", "T2 construct": "whole, on cells; Target of the gemtuzumab arm; also called CD33 expressing cells", "T2 sequence (P20138 18-364 limits assumed)": "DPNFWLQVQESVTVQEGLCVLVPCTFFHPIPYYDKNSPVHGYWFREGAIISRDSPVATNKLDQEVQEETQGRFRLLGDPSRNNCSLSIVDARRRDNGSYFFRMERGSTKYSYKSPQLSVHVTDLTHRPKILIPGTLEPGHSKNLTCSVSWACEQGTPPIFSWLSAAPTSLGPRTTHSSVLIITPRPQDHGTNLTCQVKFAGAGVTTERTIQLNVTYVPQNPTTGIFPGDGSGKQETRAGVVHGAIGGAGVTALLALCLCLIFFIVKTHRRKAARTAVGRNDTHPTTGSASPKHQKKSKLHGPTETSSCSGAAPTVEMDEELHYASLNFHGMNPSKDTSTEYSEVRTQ", "experiment": "flow cytometry on KILR-HL60 (CD33 expressing) cells, antibody at 10 ug/ml"}, "[3]": {"molecular_target": "T1, CD3 on Jurkat wild-type cells", "experiment": "flow cytometry on Jurkat WT cells, antibody at 10 ug/ml"}, "CD33 on KILR-HL60 cells [4]": {"molecular_target": "T2, CD33 on KILR-HL60 cells", "experiment": "flow cytometry on KILR-HL60 (CD33 expressing) cells, antibody at 1 ug/ml"}},
  "data": [
    {"binder": "B1", "values": [
      {"measurement": "flow cytometry signal", "setting": "[1]", "value": 12200},
      {"measurement": "flow cytometry signal", "setting": "CD33 on KILR-HL60 cells [2]", "value": 485000},
      {"measurement": "flow cytometry signal", "setting": "[3]", "value": 26400},
      {"measurement": "flow cytometry signal", "setting": "CD33 on KILR-HL60 cells [4]", "value": 453000}
    ]},
    {"binder": "B2", "values": [
      {"measurement": "flow cytometry signal", "setting": "[1]", "value": 113000},
      {"measurement": "flow cytometry signal", "setting": "CD33 on KILR-HL60 cells [2]", "value": 475000},
      {"measurement": "flow cytometry signal", "setting": "[3]", "value": 84800},
      {"measurement": "flow cytometry signal", "setting": "CD33 on KILR-HL60 cells [4]", "value": 640000}
    ]},
    {"binder": "B3", "values": [
      {"measurement": "flow cytometry signal", "setting": "[1]", "value": 19200},
      {"measurement": "flow cytometry signal", "setting": "CD33 on KILR-HL60 cells [2]", "value": 741000},
      {"measurement": "flow cytometry signal", "setting": "[3]", "value": 38300},
      {"measurement": "flow cytometry signal", "setting": "CD33 on KILR-HL60 cells [4]", "value": 640000}
    ]},
    {"binder": "B4", "values": [
      {"measurement": "flow cytometry signal", "setting": "[1]", "value": 12000},
      {"measurement": "flow cytometry signal", "setting": "CD33 on KILR-HL60 cells [2]", "value": 691000},
      {"measurement": "flow cytometry signal", "setting": "[3]", "value": 24300},
      {"measurement": "flow cytometry signal", "setting": "CD33 on KILR-HL60 cells [4]", "value": 509000}
    ]},
    {"binder": "B5", "values": [
      {"measurement": "flow cytometry signal", "setting": "[1]", "value": 10900},
      {"measurement": "flow cytometry signal", "setting": "CD33 on KILR-HL60 cells [2]", "value": 758000},
      {"measurement": "flow cytometry signal", "setting": "[3]", "value": 32800},
      {"measurement": "flow cytometry signal", "setting": "CD33 on KILR-HL60 cells [4]", "value": 486000}
    ]}
  ]
}
